Laboratory results: US20030130184, “Methods of inducing cell death” (The University of Bristol, published 2003)

Molecular target: T1, HPV16 E2Ct (E2 DNA binding domain) (Human papillomavirus type 16, UniProt P0DKA0 SEQ:1-87)
T1 chain: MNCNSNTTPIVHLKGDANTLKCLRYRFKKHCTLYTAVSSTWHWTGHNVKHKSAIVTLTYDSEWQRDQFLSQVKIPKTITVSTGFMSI
Experiment: EMSA; 10, 50, 250 nM protein; binds tightly; 20 mM HEPES pH 7.9, 25 mM KCl, poly[d(I-C)], 20 C; refolded E2Ct also binds (FIG. 7a)
Settings: chain copies: 2 (stated, dimer); label: 32P 5' end

B1: HPV16 E2 site 1, E2(1) (dsDNA)
DNA 1: TTGAACCGAAACCGGTTAGT
DNA 2: ACTAACCGGTTTCGGTTCAA
binding result: binds
